Entries after “also recorded” stand apart in the source; their conditions may differ.
Tests used:
[1] = target: T1, Dda-K38A/dT20 (Enterobacteria phage T4, UniProt P32270, K38A); type: binding, bacteriophage T4; settings: SPR analysis 1, peptides up to 100 μM, 25°C
T1 construct: made in house
Experimental: These experiments were conducted at 25°C using a Biacore 3000 optical biosensor (Cytiva). […] The chip was primed in chelating buffer (10 mM HEPES pH 7.4, 150 mM NaCl, 50 μM EDTA, 0.005% Tween20) and was preconditioned at 10 μl/min with three 60 s injections of wash buffer (10 mM HEPES pH 8.3, 150 mM NaCl, 350 mM EDTA, 0.05% Tween20) and one 60 s injection of chelating buffer before being charged with a 60 s injection of 500 μM NiCl2 in chelating buffer. […] Any remaining active sites were blocked by Tris molecules in the binding analysis buffer (20 mM Tris-acetate pH 8.0, 150 mM NaCl, 10 mM magnesium acetate, 3 mM potassium glutamate, 1 mM TCEP, 0.05% Tween20, 10% glycerol). One flow cell on the chip was charged with Ni^2+ and activated with EDC/NHS without adding protein to be used as a reference cell. gp32 C-terminal peptides were prepared in binding analysis buffer as a 4-fold dilution series at maximum concentration 100 μM for screening and were injected at a flow rate of 75 μl/min. […] The data were processed, double-referenced and analyzed using the software package Scrubber2 (version 2.0c, BioLogic Software). The equilibrium dissociation constants (KD) were determined using steady-state analysis, specifically an equilibrium affinity analysis to fit the data to a 1:1 (Langmuir) interaction model.

[2] = target: T2, gp32 His-tagged;Dda-K38A (bacteriophage T4;bacteriophage T4, UniProt P03695;P32270 1-301;1-439, |K38A); experiment: gel filtration; 50 mM NaCl; purified complex crystallized; EMSA: 25 mM HEPES pH 7.5, 5 mM MgCl2, 0.1 mM EDTA, 2 mM 2-mercaptoethanol, 1 mg/ml BSA, 5% glycerol, 10 or 150 mM NaCl, room temperature (gel 4 C); gel filtration: 20 mM Tris-HCl pH 7.0, 200 mM NaCl (50 mM for crystallization), 0.5 mM EDTA, 5 mM 2-mercaptoethanol; settings: protein: recombinant;recombinant; tags: N-terminal 6xHis;6xHis (stated for SPR); copies: 1;1; single strand
T2 sequence 1: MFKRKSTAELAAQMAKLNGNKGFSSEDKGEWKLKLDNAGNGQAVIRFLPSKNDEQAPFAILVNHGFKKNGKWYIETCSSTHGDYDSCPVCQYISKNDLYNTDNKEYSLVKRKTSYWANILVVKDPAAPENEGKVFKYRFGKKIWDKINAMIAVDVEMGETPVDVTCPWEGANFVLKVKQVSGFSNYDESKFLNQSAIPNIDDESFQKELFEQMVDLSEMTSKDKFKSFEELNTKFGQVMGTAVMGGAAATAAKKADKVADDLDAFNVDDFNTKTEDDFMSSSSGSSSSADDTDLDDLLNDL
T2 sequence 2: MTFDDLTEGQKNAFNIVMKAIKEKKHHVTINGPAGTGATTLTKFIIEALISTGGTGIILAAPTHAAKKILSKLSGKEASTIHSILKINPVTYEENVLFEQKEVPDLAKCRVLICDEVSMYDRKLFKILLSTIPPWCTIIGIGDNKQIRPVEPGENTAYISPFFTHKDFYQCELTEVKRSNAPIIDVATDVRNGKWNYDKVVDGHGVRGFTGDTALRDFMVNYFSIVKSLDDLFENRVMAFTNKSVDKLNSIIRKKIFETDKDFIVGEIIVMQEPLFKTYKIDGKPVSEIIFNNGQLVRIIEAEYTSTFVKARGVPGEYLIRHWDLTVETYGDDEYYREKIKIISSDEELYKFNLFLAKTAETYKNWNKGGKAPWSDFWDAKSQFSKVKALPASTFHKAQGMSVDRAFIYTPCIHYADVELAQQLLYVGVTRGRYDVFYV

[3] = test system: Dda binding to ssDNA (5′F-T30); experiment: Electrophoretic mobility shift assay of Dda binding to 5′F-T30 ssDNA with or without gp32; design: species or system bacteriophage T4; settings: EMSA, 5 nM 5′F-T30, 100 nM gp32, 10 mM or 150 mM NaCl, 10 min room temperature; three independent sets, Hill fit
Experimental: Varying amounts of Dda were mixed with 5 nM 5′F-T30 with or without 100 nM gp32 in 25 mM HEPES, pH 7.5, 5 mM MgCl2, 0.1 mM EDTA, 2 mM β-mercaptoethanol, 1 mg/ml bovine serum albumin, 5% glycerol, 0.05% Orange G and either 10 mM NaCl or 150 mM NaCl. Samples were incubated at room temperature in the dark for 10 min before separating on a 6% 100:1 acrylamide:bisacrylamide gel at 4°C. Gels were imaged on an Amersham Typhoon RGB Imager (Cytiva) with excitation using a 488 nm laser and emission measured after a 525BP20 filter. Data were quantified using ImageQuant software (GE Healthcare) and fit to the Hill equation.
Figure S6. gp32 enhances the affinity of Dda for ssDNA. (A) Electrophoretic mobility shift assays (EMSAs) of 5 nM 5′-F-T30 with increasing concentrations of Dda at 10 mM NaCl and 150 mM NaCl. (B) EMSAs of 5 nM 5′-F-T30 with 100 nM gp32 and increasing concentrations of Dda at 10 mM NaCl and 150 mM NaCl. ( C) The fraction of Dda bound DNA from three independent sets of EMSAs is plotted (average and standard deviation) and fit to the Hill equation. (D) The average and standard deviation of the apparent K d for each condition are given.
(1 picture or pasted object on this page, not shown here)

[4] = test system: wild-type Dda; experiment: Dda-dependent DNA unwinding assay with gp32 variants (fluorescein-quenched replication fork substrate, no annealing trap); type: biochemical, bacteriophage T4; settings: 375 nM gp32 variant, 25 nM wild-type Dda, 25 nM substrate, 2.5 mM ATP, triplicate experiments
Experimental: A partial duplex substrate mimicking a replication fork was prepared by mixing equimolar concentrations of the following oligonucleotides: loading strand - […]/36-FAM/, displaced strand - […], and leading strand - […] in 10 mM HEPES/1 mM EDTA. The sample was heated to 95°C for 5 min, followed by slowly cooling to room temperature. All concentrations are final, after mixing. ATP (2.5 mM), Mg(OAc)2 (5 mM) and gp32 (375 nM) in assay buffer (25 mM HEPES, pH 7.5, 10 mM KOAc, 0.1 mM EDTA, 2 mM β-mercaptoethanol, 1 mg/ml bovine serum albumin and 4 mM phosphoenol pyruvate) were mixed and added to wells in one row of a black 96-well plate. The reactions were initiated by adding 25 nM substrate, 25 nM wild-type Dda and 5 U/ml pyruvate kinase/lactate dehydrogenase in assay buffer with a multichannel pipette to the entire row simultaneously. Fluorescein fluorescence was measured 8 times per minute in a VICTOR Nivo Multimode Plate Reader (Perkin Elmer) at room temperature with excitation through a 480/30 nm bandpass filter and emission measured after a 530/30 nm bandpass filter.

With “240–253: synthetic peptide of gp32 C-terminus residues 240–253 (GTAVMGGAAATAAK)” the “Binding to Dda-K38A/dT20 (in words)” value [1] was “failed to bind; also recorded: showed no binding”.

TTTTTTTTTTTTTTTTTT (ssDNA) [dT18]: binds [2].

B1: wild-type gp32: bacteriophage T4 single-stranded DNA-binding protein, full length, N-terminal 6xHis-tag (protein)
chain: T2 sequence 1
modifications: left off: 6xHis, N-terminal, kept
With B1 the “Effect of gp32 on Dda binding to ssDNA (in words)” value [3] was “increases the affinity of Dda for the ssDNA; also recorded: reduces the fraction of ssDNA bound by Dda”, the “Rate constant of product formation (single exponential fit)” value ([4]; 5 mM Mg(OAc)2, pH 7.5, room temperature, fluorescein fluorescence) was 0.023 s⁻¹ and the “Amplitude of the product formation curve (fluorescence)” value ([4]; higher amplitude = more effective prevention of reannealing) was 280 000.

Reference: paper PMC11551737, “Structural and functional insights into the interaction between the bacteriophage T4 DNA processing proteins gp32 and Dda” (Nucleic Acids Research, 2024)
